Molecular target: T1, tryptophan 2-C-methyltransferase (TsrM) from Streptomyces laurentii (Streptomyces laurentii, UniProt C0JRZ9 1-599)
T1 sequence (looked up): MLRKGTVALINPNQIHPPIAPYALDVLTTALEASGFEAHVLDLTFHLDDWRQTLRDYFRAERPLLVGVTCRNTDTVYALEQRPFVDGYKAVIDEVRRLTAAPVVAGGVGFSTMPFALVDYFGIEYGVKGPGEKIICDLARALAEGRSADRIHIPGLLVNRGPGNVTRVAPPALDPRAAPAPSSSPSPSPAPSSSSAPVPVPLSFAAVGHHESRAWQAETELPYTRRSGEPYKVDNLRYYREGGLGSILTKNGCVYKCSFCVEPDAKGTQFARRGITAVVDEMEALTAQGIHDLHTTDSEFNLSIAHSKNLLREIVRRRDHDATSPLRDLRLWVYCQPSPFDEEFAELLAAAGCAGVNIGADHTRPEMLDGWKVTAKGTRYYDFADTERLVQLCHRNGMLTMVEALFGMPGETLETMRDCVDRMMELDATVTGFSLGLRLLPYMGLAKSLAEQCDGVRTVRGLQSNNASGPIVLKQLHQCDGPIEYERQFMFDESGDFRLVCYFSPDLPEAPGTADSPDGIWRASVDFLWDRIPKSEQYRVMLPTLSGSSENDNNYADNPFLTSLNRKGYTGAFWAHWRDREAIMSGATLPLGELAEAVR
Test: BLI

B1: Streptomyces cattleya [4Fe-4S] ferredoxin Fdx1 (natural protein, UniProt F8K3M7 1-106, looked up)
chain: MTYVIAQPCVDVKDKACIEECPVDCIYEGQRSLYIHPDECVDCGACEPVCPVEAIFYEDDTPEEWKDYYKANVEFFDELGSPGGASKLGLIERDHPFIAALPPQNG
modifications: biotinylated through incubation with 1 equivalent of NHS-PEG4-Biotin
B1 was tested, and the Kd was 40 µM.
